Assay results from patent US6140490.
pKd: −log10 of the molar value.

Target: Complement C1q (Homo sapiens) (UniProt P02745+P02746+P02747)
Assay: filter
Conditions: 2'-NH2 C and U; MgPBS, 37 C; starting pool

Complement C1q (Homo sapiens), sequence (P02745 23-245, chain 1 of 3): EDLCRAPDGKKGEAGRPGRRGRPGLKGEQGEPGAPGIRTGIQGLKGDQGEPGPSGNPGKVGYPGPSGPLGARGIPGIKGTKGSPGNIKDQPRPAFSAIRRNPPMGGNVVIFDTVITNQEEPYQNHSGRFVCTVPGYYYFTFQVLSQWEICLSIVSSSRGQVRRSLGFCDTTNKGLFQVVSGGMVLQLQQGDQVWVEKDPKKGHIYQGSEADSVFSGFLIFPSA
Complement C1q (Homo sapiens), sequence (P02746 28-253, chain 2 of 3): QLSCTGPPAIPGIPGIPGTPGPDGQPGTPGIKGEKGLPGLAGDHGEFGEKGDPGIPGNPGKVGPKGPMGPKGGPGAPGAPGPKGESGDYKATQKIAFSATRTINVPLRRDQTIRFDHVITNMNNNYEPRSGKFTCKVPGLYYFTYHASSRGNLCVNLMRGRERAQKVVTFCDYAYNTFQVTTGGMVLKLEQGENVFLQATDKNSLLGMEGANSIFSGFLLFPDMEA
Complement C1q (Homo sapiens), sequence (P02747 29-245, chain 3 of 3): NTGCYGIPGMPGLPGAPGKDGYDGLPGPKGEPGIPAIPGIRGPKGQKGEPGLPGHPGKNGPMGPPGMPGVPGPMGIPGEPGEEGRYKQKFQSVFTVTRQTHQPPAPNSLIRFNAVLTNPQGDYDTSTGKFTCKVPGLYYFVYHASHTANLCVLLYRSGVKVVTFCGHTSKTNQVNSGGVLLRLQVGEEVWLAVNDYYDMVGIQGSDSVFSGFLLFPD

GGGAGGACGAUGCGGNNNNNNNNNNNNNNNNNNNNNNNNNNNNNNNNNNNNNNNNNNNNNNNNNNCAGACGACUCGCCCGA [random 50N7 2'-NH2 RNA pool]
pKd: 5.64
